According to paper PMC3807708:
pKd: −log10 of the molar value.

Columns and labels:
[1] = target: extracellular domain of human interferon-γ receptor 1 (IFN-γ-Rx), wild type (human) (UniProt P15260); assay: SPR; ProteOn XPR36; His-tagged receptor immobilised on Ni2+-activated HTG chip; IFN-γ-SC as analyte, 1.2 to 99 nM; PBST (PBS pH 7.4, 0.005% Tween20); 25°C; 1:1 Langmuir with drift model; doubly referenced
IFN-γ-Rx S71E (human) = IFN-γ-Rx S71E (human) (UniProt P15260); assay: as above
IFN-γ-Rx N70G (human) = IFN-γ-Rx N70G (human) (UniProt P15260); assay: as above
IFN-γ-Rx T166M (human) = IFN-γ-Rx T166M (human) (UniProt P15260); assay: as above
[2] = target: IFN-γ-Rx S95R + H222R (human) (UniProt P15260); assay: as above
IFN-γ-Rx H222D (human) = IFN-γ-Rx H222D (human) (UniProt P15260); assay: as above
[3] = target: IFN-γ-Rx N70G + S95R (human) (UniProt P15260); assay: as above
[4] = target: IFN-γ-Rx N96W + H222R (human) (UniProt P15260); assay: as above
IFN-γ-Rx H222R (human) = IFN-γ-Rx H222R (human) (UniProt P15260); assay: as above
IFN-γ-Rx N65R (human) = IFN-γ-Rx N65R (human) (UniProt P15260); assay: as above
[5] = target: extracellular domain of human interferon-γ receptor 1 (IFN-γ-Rx), mutant N70G (human) (UniProt P15260); assay: SPR; His-tagged receptor immobilised on Ni2+-coated HTG chip; IFN-γ-SC as analyte; PBST; 35 °C; preliminary data of temperature dependency
[6] = target: extracellular domain of human interferon-γ receptor 1 (IFN-γ-Rx), mutant S95R (human) (UniProt P15260); assay: as above
[7] = target: extracellular domain of human interferon-γ receptor 1 (IFN-γ-Rx), mutant N96W (human) (UniProt P15260); assay: SPR; His-tagged receptor immobilised on Ni2+-coated HTG chip; IFN-γ-SC as analyte; PBST; 20 °C; preliminary data of temperature dependency
[8] = target: extracellular domain of human interferon-γ receptor 1 (IFN-γ-Rx), mutant H222R (human) (UniProt P15260); assay: as above
[9] = target: extracellular domain of human interferon-γ receptor 1 (IFN-γ-Rx), wild type (human) (UniProt P15260); assay: as above
[10] = target: extracellular domain of human interferon-γ receptor 1 (IFN-γ-Rx), mutant N70G (human) (UniProt P15260); assay: as above
[11] = target: extracellular domain of human interferon-γ receptor 1 (IFN-γ-Rx), mutant S95R (human) (UniProt P15260); assay: as above

pKd [1]: 7.51
koff [1]: 0.0378 s⁻¹
kon [1]: 1.24e+06 M⁻¹ s⁻¹
fold change of Kd against WT (IFN-γ-Rx S71E (human)): 2 fold
pKd (IFN-γ-Rx N70G (human)): 7.63
koff (IFN-γ-Rx N70G (human)): 0.0264 s⁻¹
kon (IFN-γ-Rx N70G (human)): 1.12e+06 M⁻¹ s⁻¹
pKd (IFN-γ-Rx T166M (human)): 7.16
koff (IFN-γ-Rx T166M (human)): 0.0639 s⁻¹
kon (IFN-γ-Rx T166M (human)): 933000 M⁻¹ s⁻¹
pKd [2]: 7.25
koff [2]: 0.059 s⁻¹
kon [2]: 1.05e+06 M⁻¹ s⁻¹
fold change of Kd against WT (IFN-γ-Rx H222D (human)): 2.2 fold
pKd [3]: 7.25
koff [3]: 0.0494 s⁻¹
kon [3]: 889000 M⁻¹ s⁻¹
pKd [4]: 8.38
koff [4]: 0.01 s⁻¹
kon [4]: 2.4e+06 M⁻¹ s⁻¹
pKd (IFN-γ-Rx H222R (human)): 7.53
koff (IFN-γ-Rx H222R (human)): 0.0349 s⁻¹
kon (IFN-γ-Rx H222R (human)): 1.19e+06 M⁻¹ s⁻¹
pKd (IFN-γ-Rx N65R (human)): 7.15
koff (IFN-γ-Rx N65R (human)): 0.0628 s⁻¹
kon (IFN-γ-Rx N65R (human)): 882000 M⁻¹ s⁻¹
pKd [5]: 7.11
pKd [6]: 6.82
pKd [7]: 8.28
pKd [8]: 7.71
pKd [9]: 7.66
pKd [10]: 7.76
pKd [11]: 7.35
Substance: single-chain form of human interferon-γ (IFN-γ-SC) (ligand)
